Experimental data taken from PMC12042621 (Structure (London, England : 1993), 2025).

B1: S1-RBD-14_(E89K) (VHH)
VHH: QVQLVESGGGLVQAGGSVRLSCAASGRSFSINPMGWFRQAPGKEREFVAAISWSGSKTVYVDSVKGRFSISRDNAKNTVYLQMNSLKPEDTAVYHCAVASRGPVYGANYVPGPHEYEYWGQGTQVTVS
B2: S1-RBD-42_(E88K) (VHH)
VHH: QVQLVESGGGLVQAGGSLRLSCVVSGSTFSNTFMDWYRQAPGKQREFVATISSGGTTNYAVFVKGRFTISRDGAKNTVYLQMNSLKPEDTAVYYCHAALPIGGDYWGQGTQVTVS

Biological target: SARS-CoV-2 spike S1 (SARS-CoV-2, wild type (Wuhan-Hu-1), UniProt P0DTC2)
Assay: SPR

| Binder | Kd |
| --- | --- |
| B1 | 0.3 nM |
| B2 | 0.1 nM |
